Test results reported in the DeepSol protein solubility set.

Assay: soluble on expression in E. coli; label from the status in PepcDB or PDB records

## MKGITSLGSKWFVEFEKNNVHNVYDRIAEHFTKTRYRIWPGVELFLKQTSPLDTVLDVGCGNGKNLISYRNLFCIGIDRCVPLVKTCKQRQLETAVADILELPFQSEKFDIVLCIAVLHHLCTRERRILAIQELGRVLRPGGSCLLYVWAANENDGKDEVKNTKAREKMRFLDENKQEALIPWVVIDHEKKATQLEKNLKQPSTFTLERYYHLYRQGELEEECLQSNCFHIQHSYYEQSNWCVVLDKKS
  soluble on expression in E. coli: soluble

## MGSDKIHHHHHHMPITQTTSAKKSKPIILMTMGQQDRNQHPYQVMTHKYMQPIVEIAGAIPLLMPTCFGIEDVDRYLDMVDGVYLSGAGSNIDPSLYGQENLTPEKSQDVNRDTVDLAIIAGALKRKLPILGICRGMQELNIALGGTLYQKVYSEPGFDDHREDPQTPNHVQYGPRHPIKTVPGSWLAKLIGDKTMVNSLHGQGICTLGKGLEALAYGEDGLIEAIHGPDYGQFILGVQWHPEWQANDNPDSIKLFQAFGSACRGEVSWQSANDAKLTA
  soluble on expression in E. coli: not soluble

## MKHLKFQSVFDIIGPVMIGPSSSHTAGAVRIGKVVHSIFGEPSEVTFHLYNSFAKTYQGHGTDKALVAGILGMDTDNPDIKNSLEIAHQKGIKIYWDILKDSNSPHPNTAKITVKNGDRSMSITGVSIGGGNIQVTELNGFSVSLTMNTPTLIIVHQDIPGMIAKVTDILSDFNINIAQMNVTRESAGEKAIMIIEVDSRDCQQAVKKIEAIPHLHNVNFFD
  soluble on expression in E. coli: soluble

## MGSDKIHHHHHHMRLLFSTMFLYEYSTDMIAKAVNLAGYDGVEFWPETPYFWVDRAMEKLECLRDFDNAIHVPVLDLNPVSVNPDICNLTLRETLYSIALAAKIKAKPVTVHAGRRSAAREPVWADYLSLSRYLRISSRYAKIKGVTVGLENSENSINNLCKTADEVRKFAEEYDVMVTLDIKHALLNGGVEEFLELFGRICNVHVSYYDEKMRHVQPSRGKEVGDALKELAELGYDGPLTVELDDLGIGNLDFSKKVEILRKERRFVEKFFKR
  soluble on expression in E. coli: not soluble

## QTVIKGLVLAADNEAPVSYASIYVAETKSGVVADESGRFILRLHPGRYRLAIRSMGYTPLETELLVGEKSEEKTFRLSSVIYDLKEVEVIGKRPKEDPAYPIMRELIARTPVYEHMVKSYQAKVYTKGSMRLDKLPFWLRYKKADGISAKDLEKKRFVIESQASLEFRHPNKYNKQVRAMRSSIPDDLKSDTTDYMQIISTNIYAKEFSLDGIVNMASPIRTGVLESYTYKLEGTSREKERKVYHISFKGRRDAMRGELWVIDSIWCLQALKLEIKAYDMIRYKVDISLNPLEKDVYLPTTYAIGMEMQSMGLKLEYQYFSSLVYDSLEIDRKLLSTARRAEGLRFRTNREVNRHLRMLESRLDTLGYHLPDKYMLPDTELQAKVRFDSLAFDRDSSYWDAVVTAPLTDEEAQSYANRDSLMQAFEKKRRFGGGREGERTGRTSILGAILGGHDYKMGEGTTLGFNGLIRGSLYDYRYTDGFWLGQSFFFRQKFSKGVDLTLRPILYYTTHRRKLYWDVRADFRYAPLSGGLLSLSAGRQSADLTGPFANTDWRIQTFLTTLVDGRGHLMLYDKKYLRLSNQIDLLPGLQLFLFAEGRHSSPLAENRVWGIFKKPIKNKLIGGIASSPDSLLYSMPDHRSLTVGGSIRYNPAPYYRLDKDGRKRYDGVGTRAPLFGLTYRQAIPLGREHDSDYIYLSGSVRQNLRLNPLHSLYYHFTVGSYFRRHTVHLDEQRYLKADNALFQIGGTLHDSFQTLPPYSYTDQNFLILQTR
  soluble on expression in E. coli: not soluble

## MKKIHYTDNYLLKPYHPVTIHVAGAGGTGSQVITNLARMNVALQALGHPGLHVTVFDPDIITEANIGRQLFSEMELGQGKATAAVTRVNRFFGTTWTAENCRYPVRKTQENGDDRTKPANIIITCTDNTRSRLELWRFLKKYRETSVNNERAVYYWMDFGNAQTTGQVFIGTVRNKIRQPASKEFMPVPGMNVITEEVNYSTIEEKDSEPSCSLAEALERQDLYINSILAQVGCDILWRMFKEGRTLYRGAYINLDTLRVNPIPV
  soluble on expression in E. coli: not soluble

## MGQDQTKKQIEKGLQLYQSNQTEKALQVWTKVLEKSSDLMGRFRVLGCLVTAHSEMGRYKEMLKFAVVQIDTARELEDADFLLESYLNLARSNEKLCEFHKTISYCKTCLGLPGTRAGAQLGGQVSLSMGNAFLGLSVFQKALESFEKALRYAHNNDDAMLECRVCCSLGSFYAQVKDYEKALFFPCKAAELVNNYGKGWSLKYRAMSQYHMAVAYRLLGRLGSAMECCEESMKIALQHGDRPLQALCLLCFADIHRSRGDLELSQLKLHCLSESIYRSKGLQRELRAHVVRFHECVEETELYCGLCGESIGEKNSRLQALPCSHIFHLRCLQNNGTRSCPNCRRSSMKPGFV
  soluble on expression in E. coli: soluble

## MSLEKVIPVKKNNDYEIYIDDFGNMGEGIGKIDNFTVFVKDAVKGEKVRAKIIKVNKSFAIGKLIDIIEKSQDRTEPVCSIYKKCGGCQLQHLKYTEQLEFKKNKVVECLKRIGKLDLSSVRINETIGMEDPYFYRNKVQLPVGETAGEAKIGFYRERSHEIIEVDKCFIQDDSANEIILLIKRWIKEFNIEGYNEYSGKGTLRHIMIRKAFKTGQIMLVLVTNTENVPHKKELIHMITTEIQGIKGIIQNINNKKTNVILGQREITLWGESTIEDYIGEFKFNISSKSFFQVNPIQTEKLYSAALKYAGLTGKEVVFDAYCGTGTISLFLSQNAKKVYGVEIIPEAIENAKINAKQNGIENTEFIVGKSEEEIPKLIEKGIAPEVVVVDPPRKGCEKSLLHSIAEASPKTIVYVSCDPATLSRDLGILSELGYEVNEVQPVDMFPMTGHVETIVLIKRVDKEGHHHHHH
  soluble on expression in E. coli: soluble

## MGSDKIHHHHHHMSVPTTMFRLTGRDYPPAKLSHASLIIIDAQKEYLSGPLKLSGMDEAVANIARLLDAARKSGRPIIHVRHLGTVGGRFDPQGPAGQFIPGLEPLEGEIVIEKRMPNAFKNTKLHETLQELGHLDLIVCGFMSHSSVSTTVRRAKDYGYRCTLVEDASATRDLAFKDGVIPAAQIHQCEMAVMADNFACVAPTASLI
  soluble on expression in E. coli: not soluble

## KGLDKWGIYVPESAAQSVKDAVFEAGAGAIGDYSQCSFEWQGTGQFLPHHNAQPVVGHPGQLERTEELRVEFVAPARLRTTLIDAIRAAHPYEEPAFDVVSMQSTQDLETAEGLGRVGTLPEPMRFGDFVQQVADALPETSWGIRAAGDPEQMVHTVAVSSGSGDSFLDAVAALGVDVYVTSDLRHHPADESRRAQGPLLIDTAHWASEFPWTYQVQELLAQEFAQLDVEVATLRTDPWNISAHPQLR
  soluble on expression in E. coli: not soluble

## MLRFPENVVICDGKRILWNGLGLPENLVFEMARTVLESNVPLKGKIFCFPAQTVLGKMAIFTDEKTQGRDVLVELLNHELLRMRLYSEEVENLVEVLFNDWRPGKRVFIVRSKNFETRLSLREKLSSFADVIYNAGEIDVGIAPAGTLLQINEEKVSFSDPERDIKEAVRKALLIDRYVNEPFSFYEKLPAYNFSLNIQIPELVKIFLRTGDIQKTSELTEKNVEVVFREILKFEKKTLLSPRIPVEAFLILKGGLD
  soluble on expression in E. coli: not soluble

## MSSKMVKSSEIVGKLNLRAHQEGGFFAETFRDSSVFLSTSQLPPTFKVDRAVSTSIYFLLPSGSVSRLHRIPMAETWHFYLGEPLTVVELYDDGKLKFTCLGPDLFEGDQKPQYTVPPNVWFGSFPTKDVHFSQDGALLKAEARDSENHFSLVGCTCAPAFQFEDFELAKRSDLLSRFPQHESLITMLSYPE
  soluble on expression in E. coli: soluble

## MTERLLVGVIVGSHGVRGLVRVKSFTQDEMALCDYGPLSDETGTRRFAVEVRNQAKGVVICQIPGVSDRTAADALKGTRLFLDRAALPADALEEDEYYHADLIGLPVDLVDGGRLGVVHSVHDFGAGDMLEVTLAQGRRSVLLPFTKAVVPLVDVKAGRLVADPPLGLLDDTRPPAGVEGEVEEDPGVGIDEDGDGKGGASLEHHHHHH
  soluble on expression in E. coli: soluble

## MICHQCPDRHDSLEEETMNAYSPPTLLQLARQKLLREEALAISALKDLPRELLPEMFEEAFTDECTKTLRAMIPMWPFPCLPVGTLIKNPNLETLKAVLEGLDILLAPKVRSSRCKLRVLNLRNEHHEFWRIWAGSHEDECLPQLTQKQPVENSPDCGVKKHLQVTTDFELTKGRLDESATYLLQWAEQRKDSIHLCCRKLQIQGLSKDAFIEIFKIIDANCVQELELSCIWEEELPFLNPYLRQMKNLLTLKLDDITEVTMDGDDLFDEKKRRKLISQLFSFYCLQNLYVDGTFAEGNMIECLRYLKKPLETLCLRYCFLSQTDLDYLPHCLNICKLKHLSLSYIYLFNLFLEPLGILLERVRDTLQTLELQLCGLTDRHFSVLLPALSQCSHLTKINFYENTISLPVLKQLSYHTANLSQLTQEQYPAPQECYDNMRGVETHRLGNICTELLDILRAKRQPERVAFATSRCIKCRGFLVYDLETQRCFFQH
  soluble on expression in E. coli: not soluble

## MAQDIKNEEVEEVQEEEVVKTAEETTPEKSELDLANERADEFENKYLRAHAEMQNIQRRANEERQNLQRYRSQDLAKAILPSLDNLERALAVEGLTDDVKKGLGMVQESLIHALKE
  soluble on expression in E. coli: not soluble

## MKPVYLAMNYFGPHEHSIIDFSKLESTPIFLISGDTGAGKSTIFDAMTFALFGSTTNDGTDGRAAKEMRSQFAPADQPTSVTFYFEQGNQLYKIARSPEQYLAKKKGSGLTKKNSTAKLAVVDHVGGVEIESIATKPADVGPEITTILNLTADQFKKIILLPQNDFSEFLKSKTTDKEKILKKIFGTQLYSDFTAELKAEYQTASKTGDQFVADLRVALASATWNDEEQAQLQAVPDNQKIPLLRAFVTTRQSAFDQAQQT
  soluble on expression in E. coli: not soluble

## MIRLTRLDGDVFFVNPDLIEAIEETPDTHIVLSNGRRYLVIEKTDAIVARIISFKSSVMKRALGGHGRKYLRRKMEGSYLPRCPLKPGHNTDLEHHHHHH
  soluble on expression in E. coli: soluble

## SLIPIFIAKRENGEKIHLLDHHDEELLHHMRKRESFFCIACGKEVLMRLGKQKRWHFAHKKVDSCLAFYEAESTYHMYGKELLYRWFKRQNVHVEIEHYLPEIRQRPDIFIERAGKQIAIEYQCANLSIEQLCKRTYSYWRAGIQVIWIIGGNQLKKHSAYWMKFSSLMAFSLQSYPQPLLIFFCSKQKSFMKCTFITSFSTSVAFSHIIYLPIETTTFEMLFSPVPFQREVLNREWKRRKDYFRQNALPILNYNHKSLLRLLYQCKCNPANFPSEIGVPLPSSFAFQTNSFIWQAFLYMNCIGELAVGDCISLKYVCSYIKKYTKRRMLPYFSQH
  soluble on expression in E. coli: not soluble

## MYSAPDFSNNDYKIIMSSQNMKDEKEELMDINKVSEQEMLARKVSKSYVSKIIEYREITGGFDKLEDMKRIKGIGNATYQKLSKVFKVASAPNKKMLNINSADDMTLKYYGLSKKEIKRIQKYLDKNDRITDNIEFKKIVNKKTYERLKDLINYDGGKRLEHHHHHH
  soluble on expression in E. coli: soluble

## MPREESESPLLVYEDPRHTPYTPFKYARKDEEERSSGGGKSPPKKAPKAQDRMSLRDKFEAAPTTKKRKTAQDPADELLQAIKPLFNQVKKEMADQLADQLGRFNEQLDMAVNSFSDEIVKLKADHALAEKNVDTYAQKVSGMFQRADMMSANVQEQRTQQAEDNRMASKARDRIIYDIAQVATNMKTMSETIAKIDAREEQAAQKQAERHTPQGGQGSLEPALKCPLCKRHHAPENCTIIRNGLDRREEAEKIKMCIQCLEVGVTNDDWVHEGCPKEKEQCTRCTKYMKPGEIAQTHHNATFCLMLTSKQYKLERKGSPSDRDYSPKGRRGPIRSRHNRYGG
  soluble on expression in E. coli: not soluble

## MGHHHHHHSHDQLDRAGVAAVALSGGEPTIHPHFLRIVKELSSRGIHTSVATNGWTFADKEKLEEAVKAGLKYVEISVDSAKPEKHDEFRGIPGAWERAIKALENAVEIGVSHGMAVIMDKETYQEMDDILDLAESIGVKRVIFFNLVPTGRAEDMVKVDLTPEEREEFLKELYHQMKKRKLEILTTAPQYARVTLIESQGKNVSPAHFYVGQNTAVKTLAEFIGGCGAGRIYAGIEPDGTVVPCVFL
  soluble on expression in E. coli: not soluble
